Measured values from patent US20250043302A1, “MUTATED HYDROXYPHENYLPYRUVATE DIOXYGENASE POLYPEPTIDE, AND CODING GENE AND USE THEREOF” (BEIJING DABEINONG BIOTECHNOLOGY CO., LTD., priority 2021, published 2025).

Legend:
Format in all cases: in vivo
[1] = tested on: Arabidopsis thaliana T1 plants; assay: Topramezone tolerance of transgenic Arabidopsis thaliana T1 plants (spray, bleached leaf area grade, damage score); conditions: for Classification and statistics of the grade of pesticide damage Grade 0: number of plants at grade 0; for Classification and statistics of the grade of pesticide damage Grade 1: number of plants at grade 1; for Classification and statistics of the grade of pesticide damage Grade 2: number of plants at grade 2; for Classification and statistics of the grade of pesticide damage Grade 3: number of plants at grade 3; for Classification and statistics of the grade of pesticide damage: Grade 0 / Classification and statistics of the grade of pesticide damage: Grade 1 / Classification and statistics of the grade of pesticide damage: Grade 2 / Classification and statistics of the grade of pesticide damage: Grade 3: number of plants
In short: (§1)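 Read-out: per-plant damage grade 0–3 from proportion of bleached leaf area at 7 DAT (1 <50%, 2 >50%, 3 100%). Plants were T1 transformants, glufosinate-selected, plus wild-type CK, sprayed 18 days post-sowing. Rates: topramezone 25–200, isoxaflutole 35–280, mesotrione 52.5–420 g ai/ha.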

[2] = tested on: Arabidopsis thaliana T1 plants; assay: Isoxaflutole tolerance of transgenic Arabidopsis thaliana T1 plants (spray, bleached leaf area grade, damage score); set-up: Scores (pesticide damage): scale not given here; conditions: for Classification and statistics of the grade of pesticide damage: Grade 0 (number of plants) / Classification and statistics of the grade of pesticide damage: Grade 1 (number of plants) / Classification and statistics of the grade of pesticide damage: Grade 2 (number of plants) / Classification and statistics of the grade of pesticide damage: Grade 3 (number of plants): 16 plants; for Classification and statistics of the grade of pesticide damage Grade 0 / Classification and statistics of the grade of pesticide damage Grade 1 / Classification and statistics of the grade of pesticide damage Grade 2 / Classification and statistics of the grade of pesticide damage Grade 3: number of plants in grade
In short: as §1

[3] = tested on: Arabidopsis thaliana T1 plants; assay: Mesotrione tolerance of transgenic Arabidopsis thaliana T1 plants (spray, bleached leaf area grade, damage score); set-up: Scores: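 damage score 0-100 computed as Σ(N×S)/(T×M)×100 over grades 0-3 with higher meaning more damage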; conditions: for Grade 0 (classification and statistics of the grade of pesticide damage; number of plants) / Grade 1 (classification and statistics of the grade of pesticide damage; number of plants) / Grade 2 (classification and statistics of the grade of pesticide damage; number of plants) / Grade 3 (classification and statistics of the grade of pesticide damage; number of plants): 16 plants; for Classification and statistics of the grade of pesticide damage Grade 0 / Classification and statistics of the grade of pesticide damage Grade 1 / Classification and statistics of the grade of pesticide damage Grade 2 / Classification and statistics of the grade of pesticide damage Grade 3: number of plants in grade
In short: as §1

[4] = Table 13, topramezone 25 g ai/ha (1×)
[5] = Table 13, topramezone 100 g ai/ha (4×)
[6] = topramezone 25 g ai/ha (1×), 7 DAT, Table 4
[7] = topramezone 100 g ai/ha (4×), 7 DAT, Table 4
[8] = isoxaflutole 35 g ai/ha (0.5x field concentration), spray, Arabidopsis thaliana T1 plants
[9] = isoxaflutole 70 g ai/ha (1x field concentration), spray, Arabidopsis thaliana T1 plants
[10] = mesotrione 52.5 g ai/ha, Arabidopsis thaliana T1 plants
[11] = mesotrione 105 g ai/ha, Arabidopsis thaliana T1 plants

B1: AtHPPD-02: nucleotide sequence encoding wild-type Arabidopsis thaliana HPPD; vector DBN11730 (nucleic acid)
DNA: ATGGGACATCAGAATGCTGCTGTATCAGAAAATCAAAATCATGATGATGGAGCCGCCTCCTCACCAGGGTTTAAGTTGGTTGGGTTCTCCAAGTTTGTACGGAAGAACCCAAAATCCGACAAGTTCAAGGTTAAACGCTTCCACCACATTGAATTCTGGTGCGGCGACGCCACCAATGTTGCTCGGCGTTTTTCATGGGGTTTAGGCATGAGATTCTCAGCAAAGAGTGACCTGAGCACCGGCAACATGGTTCATGCTAGCTATCTCTTAACATCTGGAGATTTGAGGTTTCTTTTCACGGCGCCGTACTCACCATCACTCTCCGCCGGCGAGATCAAACCCACCACGACTGCAAGCATACCTTCATTTGATCATGGTAGTTGCAGATCCTTCTTCTCGTCGCACGGCCTAGGGGTGCGCGCGGTCGCCATCGAAGTTGAAGATGCAGAATCAGCGTTTAGTATCAGCGTGGCAAATGGAGCTATTCCTTCCTCCCCTCCAATTGTCCTCAATGAGGCTGTAACTATTGCCGAGGTGAAGTTGTATGGAGATGTTGTGCTGAGATATGTTTCTTACAAGGCAGAGGACACTGAGAAATCTGAATTTTTGCCTGGTTTTGAAAGGGTCGAGGATGCTTCAAGTTTTCCTCTTGATTACGGCATACGACGGTTGGATCACGCGGTTGGAAATGTACCAGAACTTGGGCCGGCGCTCACTTATGTGGCTGGTTTCACTGGATTCCATCAATTTGCTGAGTTCACAGCTGATGATGTTGGGACTGCTGAAAGTGGGTTGAACTCTGCAGTCCTCGCCTCTAATGATGAAATGGTGCTCCTCCCGATCAACGAGCCTGTGCATGGCACCAAAAGGAAATCACAAATACAGACATATCTTGAGCACAATGAAGGTGCAGGGCTTCAACATCTTGCACTGATGTCTGAAGACATTTTCCGTACGCTGAGAGAGATGAGGAAGAGAAGTAGTATTGGTGGATTTGACTTCATGCCTTCTCCCCCACCAACTTACTACCAGAACTTGAAGAAGAGGGTTGGTGATGTGCTATCTGATGACCAGATCAAGGAGTGTGAAGAATTGGGCATTCTTGTTGATCGGGACGACCAAGGAACATTACTGCAGATATTTACAAAACCACTTGGTGACCGCCCCACTATTTTTATTGAGATCATACAAAGAGTCGGCTGCATGATGAAGGATGAGGAAGGAAAAGCATATCAATCTGGTGGTTGTGGCGGCTTTGGGAAAGGAAACTTCTCTGAGCTGTTCAAATCCATCGAGGAGTATGAGAAGACCTTGGAGGCCAAGCAGCTCGTGGGTTGA
modifications: AtHPPD-02 Nucleotide Sequence
notes: vector DBN11730
- Resistance evaluation [1, 4]: Non-resistant
- Classification and statistics of the grade of pesticide damage Grade 0 [1, 4]: 0
- Classification and statistics of the grade of pesticide damage Grade 1 [1, 4]: 0
- Classification and statistics of the grade of pesticide damage Grade 2 [1, 4]: 0
- Classification and statistics of the grade of pesticide damage Grade 3 [1, 4]: 16
- Scores ([1]; Table 13, topramezone 25 g ai/ha (1×), pesticide damage score): 100
- Resistance evaluation [1, 5]: Non-resistant
- Classification and statistics of the grade of pesticide damage Grade 0 [1, 5]: 0
- Classification and statistics of the grade of pesticide damage Grade 1 [1, 5]: 0
- Classification and statistics of the grade of pesticide damage Grade 2 [1, 5]: 0
- Classification and statistics of the grade of pesticide damage Grade 3 [1, 5]: 16
- Scores ([1]; Table 13, topramezone 100 g ai/ha (4×), pesticide damage score): 100
- Classification and statistics of the grade of pesticide damage: Grade 0 [1, 6]: 0
- Classification and statistics of the grade of pesticide damage: Grade 1 [1, 6]: 0
- Classification and statistics of the grade of pesticide damage: Grade 2 [1, 6]: 0
- Classification and statistics of the grade of pesticide damage: Grade 3 [1, 6]: 16
- Classification and statistics of the grade of pesticide damage: Grade 0 [1, 7]: 0
- Classification and statistics of the grade of pesticide damage: Grade 1 [1, 7]: 0
- Classification and statistics of the grade of pesticide damage: Grade 2 [1, 7]: 0
- Classification and statistics of the grade of pesticide damage: Grade 3 [1, 7]: 16
- Scores ([1]; pesticide damage score 0-100, topramezone 25 g ai/ha (1×), 7 DAT, Table 4): 100
- Scores ([1]; pesticide damage score 0-100, topramezone 100 g ai/ha (4×), 7 DAT, Table 4): 100
- Resistance evaluation [1, 6]: non-resistant (non-resistant plants (scores 68-100))
- Resistance evaluation [1, 7]: non-resistant (non-resistant plants (scores 68-100))
- Resistance evaluation ([2]; isoxaflutole 35 g ai/ha): Non-resistant
- Scores ([2]; isoxaflutole 35 g ai/ha): 100
- Resistance evaluation [2, 8]: Non-resistant
- Scores (pesticide damage) [2, 8]: 100
- Classification and statistics of the grade of pesticide damage: Grade 0 (number of plants) [2, 8]: 0
- Classification and statistics of the grade of pesticide damage: Grade 1 (number of plants) [2, 8]: 0
- Classification and statistics of the grade of pesticide damage: Grade 2 (number of plants) [2, 8]: 0
- Classification and statistics of the grade of pesticide damage: Grade 3 (number of plants) [2, 8]: 16
- Classification and statistics of the grade of pesticide damage Grade 0 ([2]; isoxaflutole 35 g ai/ha): 0
- Classification and statistics of the grade of pesticide damage Grade 1 ([2]; isoxaflutole 35 g ai/ha): 0
- Classification and statistics of the grade of pesticide damage Grade 2 ([2]; isoxaflutole 35 g ai/ha): 0
- Classification and statistics of the grade of pesticide damage Grade 3 ([2]; isoxaflutole 35 g ai/ha): 16
- Resistance evaluation ([2]; isoxaflutole 70 g ai/ha): Non-resistant
- Scores ([2]; isoxaflutole 70 g ai/ha): 100
- Resistance evaluation [2, 9]: Non-resistant
- Scores (pesticide damage) [2, 9]: 100
- Classification and statistics of the grade of pesticide damage: Grade 0 (number of plants) [2, 9]: 0
- Classification and statistics of the grade of pesticide damage: Grade 1 (number of plants) [2, 9]: 0
- Classification and statistics of the grade of pesticide damage: Grade 2 (number of plants) [2, 9]: 0
- Classification and statistics of the grade of pesticide damage: Grade 3 (number of plants) [2, 9]: 16
- Classification and statistics of the grade of pesticide damage Grade 0 ([2]; isoxaflutole 70 g ai/ha): 0
- Classification and statistics of the grade of pesticide damage Grade 1 ([2]; isoxaflutole 70 g ai/ha): 0
- Classification and statistics of the grade of pesticide damage Grade 2 ([2]; isoxaflutole 70 g ai/ha): 0
- Classification and statistics of the grade of pesticide damage Grade 3 ([2]; isoxaflutole 70 g ai/ha): 16
- Resistance evaluation ([3]; mesotrione 52.5 g ai/ha): Non-resistant
- Scores ([3]; mesotrione 52.5 g ai/ha): 100
- Resistance evaluation [3, 10]: Non-resistant
- Scores [3, 10]: 100
- Grade 0 (classification and statistics of the grade of pesticide damage; number of plants) [3, 10]: 0
- Grade 1 (classification and statistics of the grade of pesticide damage; number of plants) [3, 10]: 0
- Grade 2 (classification and statistics of the grade of pesticide damage; number of plants) [3, 10]: 0
- Grade 3 (classification and statistics of the grade of pesticide damage; number of plants) [3, 10]: 16
- Classification and statistics of the grade of pesticide damage Grade 0 ([3]; mesotrione 52.5 g ai/ha): 0
- Classification and statistics of the grade of pesticide damage Grade 1 ([3]; mesotrione 52.5 g ai/ha): 0
- Classification and statistics of the grade of pesticide damage Grade 2 ([3]; mesotrione 52.5 g ai/ha): 0
- Classification and statistics of the grade of pesticide damage Grade 3 ([3]; mesotrione 52.5 g ai/ha): 16
- Resistance evaluation ([3]; mesotrione 105 g ai/ha): Non-resistant
- Scores ([3]; mesotrione 105 g ai/ha): 100
- Resistance evaluation [3, 11]: Non-resistant
- Scores [3, 11]: 100
- Grade 0 (classification and statistics of the grade of pesticide damage; number of plants) [3, 11]: 0
- Grade 1 (classification and statistics of the grade of pesticide damage; number of plants) [3, 11]: 0
- Grade 2 (classification and statistics of the grade of pesticide damage; number of plants) [3, 11]: 0
- Grade 3 (classification and statistics of the grade of pesticide damage; number of plants) [3, 11]: 16
- Classification and statistics of the grade of pesticide damage Grade 0 ([3]; mesotrione 105 g ai/ha): 0
- Classification and statistics of the grade of pesticide damage Grade 1 ([3]; mesotrione 105 g ai/ha): 0
- Classification and statistics of the grade of pesticide damage Grade 2 ([3]; mesotrione 105 g ai/ha): 0
- Classification and statistics of the grade of pesticide damage Grade 3 ([3]; mesotrione 105 g ai/ha): 16
